Results taken from a protein production outcome set (Wang et al. 2014).

Assay: label from the status in PepcDB records
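Note: failed if final PepcDB status was selected cloned or expressed and not failed if soluble or beyond.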

Sequence	protein production
MKLKKRKVAAALLKRFTLPLLFTTGSLGAVTYEVHGDFINFAKVGFNHSPINPVKGIYPTETFVNLTGKLEGSVHLGRGWTVNLGGVLGGQAYDGTKYDRWAKDFTPPSYWDKTSCGTDSMSLCMNATKMWQQSGPGGVINPRGIGWEYMGEWNGLFPNYYPANAYLPGGSRRYQVYKANLTYDSDRVHMVMGRFDITEQEQMDWIYQLFQGFYGTFKLTKNMKFLLFSGWGRGIADGQWLFPIYREKPWGVHKAGIIYRPTKNLMIHPYVYLIPMVGTLPGAKIEYDTNPEFSGRGIRNRTTFYALYDYRWNNAEYGRYAPARYNTWDPFLDNGKWRGLQGPGGATLLLRHHIDINNYFVVGGAYLNIGNPNMNLGTWGNPVAVDGIEQWVGSIYSLGFAGIDNITDADAFTEYVKGGGKHGKFSWSVYQRFTTAPRALEYGIGMYLDYQFSKHVKAGLKLVWLEFQIRAGYNPGTGFLGPNGQPLNLNTGLFESSAFAQGPQNMGGIAKSITQDRSHLMTHISYSF	failed
MPGESNIIEWPASRVRVISGASWSRNGQILSGRCKANNGTWFGITKGGRVAFLVNTSLLLDRVKSYSGSELYPVRFLEGNMSPEQFANEVKVHEKETNERHAYSLVVADMTSSSMVHILKPSDTKSDVVIETVPFGVHTLSSYEGLDSTDSARDLLLRRLFTQMVGNLGNVQQRQMEEIAGRFMYDAQAGRDAVFYHSRDEHPNGKLGTQRFGTTSTTALVVKRTREVMLFEKYMEQNGAWNTNNFAFNIQKQQKLYPNLDKEALKRVGVFALEEVNNHEHDIHPDLMPSFFEDDMLKVKFNEMIARHAKLPPIKNIVEDLMMKSPFFIDSVDGAGKKVRYRTVRTLGMDIKANRPQGRFYERHLNDNGEWVG	failed
MRAISQYIAIFVITLTLSGCFFQNSDDQRWELAPQGTTSFALSRDARFALFFVKNDSIPEKNESQVKSGLHFWDLVENKELTFFGDQDQDKSTVSYIRISDNSRFAITATQTNFAVWDLGMGISEGLWSISDGIIRDVAIASNGQQVLLGLSNGKAIYINLATGRRLEFLAHREKVNSVALSANGKFALSGGNDYFAYLWDTETGQILRTFEHEKRVSRTALQRDGKYAFTADGGNEGFIWDLKTGEKITELSTLARQQVYSTARFSDDGQLLVTGSPSGTVNVWNTTSGKKLEQWRSEPLKDARPPTAVVYDVAIDKQQRVVSATSAGIAQAWLIE	failed
MKTGKELKPGTVIRLENDPWLVQKAEFTKSGRNSAIMKTKLKNLLTGYKTEIVYSADDKLDDVILDRKEATLSFISGDTYTFMDTTDYTMYELNAEDIESVLPFVEEGMTDVCEAVFFDERLVSVELPTTIVRQVDYTEGSARGDTSGKVMKPAKLKNGTELSVADFIEIGDMIEIDTREGGSYKGRAKLEHHHHHH	failed
MSLNGSSIIEFEDMTWSQQVEDSKKPVVVMFYSPACPYCKAMEPYFEEYAKEYGSSAVFGRINIATNPWTAEKYGVQGTPTFKFFCHGRPVWEQVGQIYPSILKNAVRDMLQHGEECIRKSTPVGQDITGYVEGHHHHHH	not failed
MANAIRLPPEAYPMSIAAQKNDDDRQARALAALAEKPDGIVEAIAAKAEVAPAEILAILPQGAAVSAPADRFDAIWNEMRGWGEILMIVQTGDIVLEVPGHLPEGTESHGWFNIHGDSPIGGHIKKDNCAAITFVDRGFHGRRSCSVWFMNAAGGAMFKIFVRRDENKELLAGQLAKFEELRDGFRGLEHHHHHH	not failed
MAAPVVVAPAINLQHMDLPEGNEDVAAVLQTSTQRWLNAAEWSILYNNHNLFPESNSFTIPIEVEGLYRVDNRFNQDSNTWRNTSAPSTCKNAINFYNVRIATGLYRFDDDGDIVMDAEVQGGWVLCRKTVRNRGHCGTRLSHLYKPVFDRQFKMLKIHMMEDMIKDGEEKSLDTFVISRQLTTFTDLTGWAFGSSVIVEFKVRLEHLRGKSIPIA	failed
MTNKITERITGHTELIGLIATPIRHSLSPTMHNEAFAKLGLDYVYLAFEVGDKELKDVVQGFRAMNLRGWNVSMPNKTNIHKYLDKLSPAAELVGAVNTVVNDDGVLTGHITDGTGYMRALKEAGHDIIGKKMTICGAGGAATAICIQAALDGVKEISIFNRKDDFYANAEKTVEKINSKTDCKAQLFDIEDHEQLRKEIAESVIFTNATGVGMKPFEGETLLPSADMLRPELIVSDVVYKPTKTRLLEIAEEQGCQTLNGLGMMLWQGAKAFEIWTHKEMPVDYIKEILF	not failed
MTGVFLPPLPPSLRLQIKTMAESILPNAIRSQSQPQAFVQVEVWIRRLVWKIVIATVLLMAVGSATRVMNAGLACPDWPLCYGQWVPSQQMNLQVFLEWFHRLDAALIGFSTLILVGLSWWFRRVLPKWLPWATLGSLALILVQGLLGGLTVIELLRFDIVTAHLGTAMAFLGSLVIIGLCLMPYQSNQTAGKLRPVALASTTIIYLQCLLGGLVGSQWAAHQCLAIAGTQFCQVLHSHLLGVLPTVLGVGLTFWCTRRTPALNPFLRQLGNGALALLGGQILLGVATLKLHLQIEPLTVAHHTVGICLWATLLAIAVLAVRDHRPTAPITS	failed
SLDPVSQSKLEQAIHDQIPQLAKTAGKDLEAAAIAVDRHSGEIRAMVGGKRTGYDGFNRVLNASRQIGSLVKPAVYLTALAHPDQYNLATTLEDKPLTLKGSEGSAWTPRNYDRQYRGEVPLYLALAQSLNVPTVALGMKLGIDQVSATLGKLGVNRDEIRPVPSMLLGSFSLTPYQVAQMYQTLTNSGKKAPLSALRSVLDLEGNVLYESLPRVSQAVDQQAAWLTTYAMKQGVQEGTGRYLNAQFSSAALAGKTGTTNDNRDSWFVGVDGREVTTIWLGRDDNQPTKLTGASGALRVYAQYLKYRIPEKLQLPW	failed
MSRVKILDEETISHIAAGEVVERAASVVKELVENAVDADAQIIRIGISADKTGITKISVTDDGIGMDFDDALLAFRQHATSKISRPEDLDGITTLGFRGEALASIAAISKVTFTTKERGSPSPEAARVVIHGGELISHSAVGAPEGTSVLIDALFYNTPARRKFQKSVPTELSHVYDMVERIALSNRNISFVLLYNGKERFQTFGTGSYPDVIAAVFGSTFSKELTPVSGSFGPVKIDGWITRPGSEMKTTQTRFYLSINGRQVTSRQLQWAIREGYGTLLPKGMYPAAFLDIVLDPRDVDVNVHPTKREVRLSREREVMRCVQDAVYTSLHEERVFSTAPMPTLARETITTLPVEIVGEPVPVYAGKQEMHEARQAPLKQTEKQLRRTESADLPETDLFVPEVLGQIGDTYILAKNESGDLIVVDQHAAHERIMYDQLLARSSSAEAGQELIVPQPITLSKKETAALPDLLDVLAAAGYLLEPFGKDVWMVRSVPVVSSTLGDPDTIHAILDAALDGVGNTDEVLDRVLKTAACRAVVKGNTPLTIEQMQRLLRQLMATKSPYTCPHGRPTTIVLSKSRLAGMFLRT	failed
MHSEMTVPGFETRLAKVQDVWRDNRCLKSSSIGQYLYWIHRFHHYCIAEALDADEQLTQAGVSLFAQWYARQRRVDAECACQGAQSALRAWALGLSTLGVEIPPWQCDTDRTSESEPRLQDFAEHLRQHRGNPEATIKKKLAHIRCFLAFIAARHRPLRHLKLTDIDAFLVDCSQRYARTTTADIGSSLRGYVRFLLVTGQVTADLAPSIVTPIVRHYEQPLRALPWDDVRHILAAIDRSSPIGLRDYALLLLMSTYGLGAGEVIRLTLDDIDWQAATLRVVRPKTGVAFVLPLLPALAQALADYLKHGRPRRAPSRHVFQSMRAPHYPLSESSAIRHILVGHARKAGVTAAYLGSHVLRHTHACRQVEQEISPKVLSDILGHRSPESLSAYVRIATERLRQLPLPVPE	failed
MAIKAGKVLRTATAAARKFQQKQFSASSSAFPEPPPVSPSSGVGAFLGIPKIIRSESDLLVSKYIRIAQGRLTKKGDYTEEKLKKMLSGEDRVGIGETMKLLEGRNTGLVSSKKPNSGRSKK	failed
MIKLLLLDVDGTLTDGSLYFDENFHEIKAFNVKDGLGMTLWQKLGKKIAIITGRTSIMVKKRMESLGVQFVFMGVENKNTVIERLKKDLQLSAQEIACVGDDYNDLGMFKACALSFAPFDAHPLLKSKAYKVLQNSGGKGAVREAIDYLLTLEGLQDEALKLYL	failed
MLITVYCVRRDLSEVTFSLQVSPDFELRNFKVLCEAESRVPVEEIQIIHMERLLIEDHCSLGSYGLKDGDIVVLLQKDNVGPRAPGRAPNQPRVD	failed
